Test results published in PMC13227277, “Targeting CIRP and IL-6R-mediated microglial inflammation to improve outcomes in intracerebral hemorrhage” (Journal of Advanced Research, 2025).

Tests used:
STAT3 = STAT3 phosphorylation following CIRP and IL-6R interaction, western blot; format: cell-based; conditions: n = 6
Description: Cells were divided into control and test groups. For transfection, solution A (plasmid diluted in Opti-MEM) and solution B (Lipofectamine 2000, Life Technologies, USA, diluted in Opti-MEM) were mixed at a 1:2 plasmid-to-lipofectamine ratio. After 6 h, the medium was replaced with DMEM, and GFP fluorescence was observed 24–48 h post-transfection to assess efficiency. Cells were divided into PBS, IL-6R, and CIRP (1 μg/mL for 24 h) groups for further analysis.
Cells were washed twice with PBS, lysed, and sonicated. After a 30-minute rest to ensure thorough lysis, the homogenate was centrifuged at 12,000 rpm at 4 °C for 15 min. The supernatant was collected for protein quantification using the BCA method. Samples were prepared at a concentration of 2 μg/μL, and 15 μL per well was loaded for gel electrophoresis. Proteins were transferred to membranes using a wet transfer method and blocked with 5 % non-fat milk. […] Membranes were incubated with primary antibodies overnight at 4 °C, followed by incubation with secondary antibodies (GAR-HRP, BIOSHARP; GAM-HRP, Jackson) at room temperature for 2 h. Membranes were washed three times with TBST and developed using a chemiluminescent substrate.

IL-6Rα = conditions: macrophages; cited from earlier work
Description: Previous studies have shown that MD2 binds to a specific 15-amino acid segment of CIRP with high affinity, promoting inflammation. To target this interaction, we designed the peptides TCC and TC using macromolecular docking techniques, with SPR confirming that TCC reduced the binding affinity of CIRP to IL-6Rα.

[1] = target: T1, recombinant human IL-6 receptor alpha (IL-6Rα) (human, UniProt P08887 20-365); assay: SPR; competitive inhibition: IL-6Rα on a CM5 chip saturated with TCC (100 times its affinity constant; 1.5 μg/mL), then CIRBP as analyte; conditions: both partners purified
T1 construct: Interleukin-6 receptor subunit alpha, human; UniProtKB P08887 is printed for the docking; also called rhIL-6Rα; rhIL-6R; source: recombinant
T1 sequence (looked up): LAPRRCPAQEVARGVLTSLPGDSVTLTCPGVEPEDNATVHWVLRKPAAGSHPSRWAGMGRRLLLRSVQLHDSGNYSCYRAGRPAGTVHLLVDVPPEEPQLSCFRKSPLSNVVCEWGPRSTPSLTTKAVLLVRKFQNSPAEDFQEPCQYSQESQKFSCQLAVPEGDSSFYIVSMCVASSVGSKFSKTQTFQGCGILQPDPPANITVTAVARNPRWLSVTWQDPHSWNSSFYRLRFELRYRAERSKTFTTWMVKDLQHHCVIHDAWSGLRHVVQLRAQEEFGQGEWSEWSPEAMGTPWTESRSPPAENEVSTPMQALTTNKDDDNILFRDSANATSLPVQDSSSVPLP

microglia = assay: Microglial phagocytosis of CFSE-labeled RBCs; format: cell-based, mouse; conditions: CFSE-labeled erythrocytes 10:1, 4 h; TCC pretreatment then CIRP; n = 6
Description: Primary cortical neurons were isolated from embryonic day 16–18 (E16–E18) C57BL/6 mouse embryos as previously described, and cultured in Neurobasal medium supplemented with B27 and GlutaMAX (Gibco).Primary microglial cells were isolated from the cortices of neonatal (day 1) C57BL/6J mice. After disinfection with 75 % ethanol, the skin and skull were removed, and the brains were placed in ice-cold HBSS. The meninges were peeled off, the cortex was collected, and the hippocampus was discarded. Tissues were digested with 0.25 % trypsin at 37 °C for 12 min, centrifuged at 1200 rpm for 5 min, and resuspended in complete medium. The suspension was transferred to a T75 flask with 15 mL of complete medium. After 14 days, microglial cells were harvested by shaking the flask at 270–280 rpm for 30 min, and the supernatant was collected. […]
The functional characteristics of microglial cells encompass not only the release of inflammatory cytokines but also their phagocytic activity. […] RBCs were labeled with either 0.5 μM or 5 μM CFSE, and immunofluorescence analysis determined that 5 μM CFSE was the optimal concentration for labeling (Fig. 7G). […]
RBCs were isolated via density gradient centrifugation and labeled with CFSE before being stereotactically injected into the right striatum. […] Cell viability was assessed using a Fixable Viability Dye, and flow cytometric analysis was subsequently performed. […]

B1: recombinant human CIRP (cold-inducible RNA-binding protein) (natural protein, UniProt Q14011 1-172, looked up)
chain: MASDEGKLFVGGLSFDTNEQSLEQVFSKYGQISEVVVVKDRETQRSRGFGFVTFENIDDAKDAMMAMNGKSVDGRQIRVDQAGKSSDNRSRGYRGGSAGGRGFFRGGRGRGRGFSRGGGDRGYGGNRFESRSGGYGGSRDYYSSRSQSGGYSDRSSGGSYRDSYDSYATHNE
notes: UniProtKB Q14011 is printed for the docking; also called rhCIRP; human CIRBP; source: recombinant
phosphorylation of STAT3 (STAT3): induced phosphorylation of the STAT3
IL-6Rα as receptor for CIRP (IL-6Rα): high-affinity receptor for CIRP in macrophages
KD in the presence of the competitor TCC (1.5 μg/mL) [1]: 17.7 nM
microglial phagocytosis of RBCs (microglia): significantly reduced in the CIRP group compared to the PBS group
